Target: CENP-A nucleosomes reconstituted on an 18 x 601 DNA array (xlCENP-A-myc/H4 tetramer with H2A/H2B dimers) (X. laevis | not stated) (UniProt Q569M3)

In the case of “Xenopus laevis M18BP1-L S760D (xlM18BP1-L^S760D-3xFLAG) (natural protein)”, the centromere localisation (immunofluorescence, FLAG) on sperm nuclei in interphase egg extract immunodepleted of endogenous CENP-C and M18BP1, relative to WT FLAG-M18BP1-L (% of WT levels) is reported as 30.

Source: paper PMC13021935
